From patent US9809653B2, “Anti-LAMP1 antibodies and antibody drug conjugates, and uses thereof” (SANOFI, priority 2012, dated 2017) come the findings set out here.

The assay addresses T1, human LAMP1 expressed transiently at the cell surface of HEK293 (Homo sapiens, UniProt P11279).
T1 construct: expressed in transfected cells; host or cells: HEK293 (Invitrogen K9000-10), transient transfection
T1 sequence (P11279 29-417): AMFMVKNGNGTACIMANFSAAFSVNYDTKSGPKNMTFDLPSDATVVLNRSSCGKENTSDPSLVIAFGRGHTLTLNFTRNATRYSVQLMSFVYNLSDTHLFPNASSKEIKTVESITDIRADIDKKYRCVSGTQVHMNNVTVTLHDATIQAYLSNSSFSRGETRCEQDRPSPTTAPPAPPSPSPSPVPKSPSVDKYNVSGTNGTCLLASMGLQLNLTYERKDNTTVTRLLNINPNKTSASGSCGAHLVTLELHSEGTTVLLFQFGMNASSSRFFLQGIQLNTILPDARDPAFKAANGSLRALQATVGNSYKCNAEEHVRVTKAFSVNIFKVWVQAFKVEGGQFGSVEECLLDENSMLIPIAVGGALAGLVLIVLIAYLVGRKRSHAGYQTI
The assay can be described thus: FACS on HEK293 cells transiently transfected with human LAMP1. It counts as binding. Conditions: transient HEK293. From the text: LAMP1 Coding DNA Sequence, RefSeq NM_005561.3 (SEQ ID NO: 23) was cloned internally. The CDS of Macaca mulatta LAMP1, RefSeq XP_001087801 (SEQ ID NO: 27) was also cloned internally. The predicted sequences of mature LAMP1 from Macaca mulatta and Macaca fascicularis are identical to 99%, said sequence differing by one additional Leucin at position 11 of Macaca mulatta (SEQ ID NO: 27), i.e. in the signal peptide. The mature LAMP1 proteins of Macaca mulatta and Macaca fascicularis are identical. Therefore the secreted LAMP1 used in the following example is referred to cynomolgus monkey. Both CDS were cloned into mammalian expression plasmids under CMV enhancer/promoter and SV40 polyA signals. HEK293 cells (Invitrogen; #K9000-10.) were transiently transfected with human LAMP1 or cynomolgus LAMP1 plasmids using FreeStyle™ MAX 293 Expression System according to the manufacturer's instructions. […] 100 μL/well of goat anti-mouse IgG conjugated with Alexa647 (Invitrogen; #A2135) was added for 45 min at 4° C. and washed three times with PBS 1% BSA. The antibody binding was evaluated after centrifugation and resuspension of cells by adding 200 μl/well PBS 1% BSA and read using Guava® easyCyte™ 8HT Flow Cytometry System. EC50 values were estimated using BIOST@T-SPEED software.

B1: MAb1: murine monoclonal anti-LAMP1 antibody, VH SEQ ID NO: 1, VL SEQ ID NO: 5 (antibody, V domains shown)
VH: QVQLQQSGAELVKPGASVKMSCKASGYIFTNYNIHWVKKSPGQGLEWIGAIYPGNGDAPYSQKFKDKATLTADKSSSTTYMQLSRLTSEDSAVYYCVRANWDVAFAYWGQGTLVSVSA
VL: DIQMTQSPPSLSASLGGKVTITCKASQDIDRYMAWYQDKPGKGPRLLIHDTSTLQPGIPSRFSGSGSGRDYSFSISNLEPEDIATYYCLQYDNLWTFGGGTKLEIK
modifications: Antibody Fragment; antibody fragment
Take B1: the concentration for a half-maximal effect (EC50) (usually the concentration at which the effect is half-maximal) stood at 14 nM.
